B1: C19orf51 (parent)
chain: FAPQTGARPSETFARFCKSQESAL
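Also: lentivirally expressed fusions sorted by FACS into six bins by GFP to DsRed ratio, PSI derived from sequencing read proportions per bin multiplied by bin number.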

In this data set the parent is B1. Put plainly: protein stability index of a GFP-peptide fusion (GPS, HEK-293T) (PSI 1-6); higher = more stable. The conditions noted are these: c terminus: a fixed tail appended.
FAPQTGARPAETFARFCKSQESAL [S10A]: the protein stability index turned out to be 2.32. The result for FAPQTGARPLETFARFCKSQESAL [S10L] reads 1.58. The value for FAPQTGARPIETFARFCKSQESAL [S10I] was 2.32; that for FAPQTGARPNETFARFCKSQESAL [S10N] was 1.72. The result for FAPQTGARPEETFARFCKSQESAL [S10E] reads 1.43. For the variant FAPQTGARPHETFARFCKSQESAL [S10H], the protein stability index stood at 2.76. On to FAPQTGARPFETFARFCKSQESAL [S10F], for which the protein stability index came to 2.11. The result for FAPQTGARPQETFARFCKSQESAL [S10Q] reads 1.96; that for FAPQTGARPKETFARFCKSQESAL [S10K], 2.62; that for FAPQTGARPRETFARFCKSQESAL [S10R], 2.34. The value for FAPQTGARPGETFARFCKSQESAL [S10G] was 2.46; that for FAPQTGARPTETFARFCKSQESAL [S10T] was 2.25; that for FAPQTGARPCETFARFCKSQESAL [S10C] was 2.34. The result for FGPQTGARPSETFARFCKSQESAL [A2G] reads 2.95; that for FDPQTGARPSETFARFCKSQESAL [A2D], 3.07. On to FNPQTGARPSETFARFCKSQESAL [A2N], for which the protein stability index came out at 1.04. For FYPQTGARPSETFARFCKSQESAL [A2Y], the protein stability index was 2.59.

Take FSPQTGARPSETFARFCKSQESAL [A2S]: the protein stability index was 1.9. The result for FPPQTGARPSETFARFCKSQESAL [A2P] reads 2.16; that for FWPQTGARPSETFARFCKSQESAL [A2W], 2.02. The value for FKPQTGARPSETFARFCKSQESAL [A2K] was 3.17. The result for FFPQTGARPSETFARFCKSQESAL [A2F] reads 1.88; that for FMPQTGARPSETFARFCKSQESAL [A2M], 1.45. With FHPQTGARPSETFARFCKSQESAL [A2H], the protein stability index was determined as 1.

FTPQTGARPSETFARFCKSQESAL [A2T]: the protein stability index was 1.61. In the case of FAPQTVARPSETFARFCKSQESAL [G6V], the protein stability index was found to be 2.13. The value for FAPQTQARPSETFARFCKSQESAL [G6Q] was 1.36; that for FAPQTAARPSETFARFCKSQESAL [G6A] was 2.12; that for FAPQTWARPSETFARFCKSQESAL [G6W] was 2.83. Regarding FAPQTDARPSETFARFCKSQESAL [G6D], the protein stability index was determined as 2.04. The result for FAPQTTARPSETFARFCKSQESAL [G6T] reads 2.51; that for FAPQTFARPSETFARFCKSQESAL [G6F], 2.86; that for FAPQTEARPSETFARFCKSQESAL [G6E], 1.67. The value for FAPQTLARPSETFARFCKSQESAL [G6L] was 2.07.

On to FAPQTKARPSETFARFCKSQESAL [G6K], for which the protein stability index worked out at 2.51. The value for FAPQTYARPSETFARFCKSQESAL [G6Y] was 1.86.

Turning to FAPQTIARPSETFARFCKSQESAL [G6I], the protein stability index amounted to 2.25.

With FAPQTMARPSETFARFCKSQESAL [G6M], the protein stability index was determined as 2.32. Turning to FAPQTSARPSETFARFCKSQESAL [G6S], the protein stability index was determined as 1.9. The value for FAPQTCARPSETFARFCKSQESAL [G6C] was 1.06. The value for FAPQTPARPSETFARFCKSQESAL [G6P] was 1.95; that for YAPQTGARPSETFARFCKSQESAL [F1Y] was 4.05; that for PAPQTGARPSETFARFCKSQESAL [F1P] was 3.71. With DAPQTGARPSETFARFCKSQESAL [F1D], the protein stability index amounted to 4.78. On to QAPQTGARPSETFARFCKSQESAL [F1Q], for which the protein stability index amounted to 3.77. The value for GAPQTGARPSETFARFCKSQESAL [F1G] was 4.63. The result for KAPQTGARPSETFARFCKSQESAL [F1K] reads 3.54; that for EAPQTGARPSETFARFCKSQESAL [F1E], 4.14. The result for SAPQTGARPSETFARFCKSQESAL [F1S] reads 3.79; that for NAPQTGARPSETFARFCKSQESAL [F1N], 3.87. Take VAPQTGARPSETFARFCKSQESAL [F1V]: the protein stability index turned out to be 3.3. As for CAPQTGARPSETFARFCKSQESAL [F1C], the protein stability index turned out to be 1.38. The result for MAPQTGARPSETFARFCKSQESAL [F1M] reads 3.59; that for IAPQTGARPSETFARFCKSQESAL [F1I], 2.65. The value for TAPQTGARPSETFARFCKSQESAL [F1T] was 2.49. The value for WAPQTGARPSETFARFCKSQESAL [F1W] was 2.58. With FAPQTGAMPSETFARFCKSQESAL [R8M], the protein stability index was 1.87. The value for FAPQTGAIPSETFARFCKSQESAL [R8I] was 1.71; that for FAPQTGAVPSETFARFCKSQESAL [R8V] was 2.1; that for FAPQTGAPPSETFARFCKSQESAL [R8P] was 2.83. The result for FAPQTGAKPSETFARFCKSQESAL [R8K] reads 2.84; that for FAPQTGAGPSETFARFCKSQESAL [R8G], 1.94; that for FAPQTGAQPSETFARFCKSQESAL [R8Q], 1.59.

As to FAPQTGATPSETFARFCKSQESAL [R8T], the protein stability index is 1.89. The value for FAPQTGAWPSETFARFCKSQESAL [R8W] was 2.52; that for FAPQTGASPSETFARFCKSQESAL [R8S] was 2.38. The value for FAPQTGADPSETFARFCKSQESAL [R8D] was 2.13. The value for FAPQTGAAPSETFARFCKSQESAL [R8A] was 2.93; that for FAPQTGAHPSETFARFCKSQESAL [R8H] was 2.88; that for FAPQTGAYPSETFARFCKSQESAL [R8Y] was 1.81.

With FAPQTGALPSETFARFCKSQESAL [R8L], the protein stability index was 3.45. The value for FAPQTGAEPSETFARFCKSQESAL [R8E] was 2.65; that for FAPQTGARPSRTFARFCKSQESAL [E11R] was 2.15; that for FAPQTGARPSFTFARFCKSQESAL [E11F] was 3.67. For FAPQTGARPSMTFARFCKSQESAL [E11M], the protein stability index stood at 3.05. The value for FAPQTGARPSITFARFCKSQESAL [E11I] was 1.72; that for FAPQTGARPSHTFARFCKSQESAL [E11H] was 2.47. The result for FAPQTGARPSNTFARFCKSQESAL [E11N] reads 3.64; that for FAPQTGARPSLTFARFCKSQESAL [E11L], 2.27. The result for FAPQTGARPSCTFARFCKSQESAL [E11C] reads 2.86. FAPQTGARPSYTFARFCKSQESAL [E11Y]: the protein stability index is 3.29. The result for FAPQTGARPSDTFARFCKSQESAL [E11D] reads 1.85; that for FAPQTGARPSGTFARFCKSQESAL [E11G], 1.54.

With FAPQTGARPSKTFARFCKSQESAL [E11K], the protein stability index is 1.03. The result for FAPQTGARPSSTFARFCKSQESAL [E11S] reads 3.19. For the variant FAPQTGARPSTTFARFCKSQESAL [E11T], the protein stability index came to 1.96. As to FAPQTGARPSATFARFCKSQESAL [E11A], the protein stability index stood at 1.55. The value for FAPQTGERPSETFARFCKSQESAL [A7E] was 1.77; that for FAPQTGTRPSETFARFCKSQESAL [A7T] was 2.69; that for FAPQTGQRPSETFARFCKSQESAL [A7Q] was 1.31. The result for FAPQTGMRPSETFARFCKSQESAL [A7M] reads 1.77.

Regarding FAPQTGHRPSETFARFCKSQESAL [A7H], the protein stability index is 3.46. The result for FAPQTGDRPSETFARFCKSQESAL [A7D] reads 1.59. Consider FAPQTGLRPSETFARFCKSQESAL [A7L], for which the protein stability index was determined as 2.

Source of the values: the supplement of paper PMC10567573.
